Laboratory results: the supplement of paper PMC7877785
± gives the uncertainty stated by the source.

Assay: self-splicing fitness, log relative to wild type (ln ratio); higher = more splicing; Tetrahymena group I intron in knt gene, E. coli kanamycin selection, DiMSum; sequences stand for … in CUCUCU…GGAGGGAAAAGUUAUCAGGCAUGCACCUGGUAGCUAGUCUUUAAACCAAUAGAUUGCAUCGGUUUAAAAGGCAAGACCGUCAAAUUGCGGGAAAGGGGUCAACAGCCGUUCAGUACCAAGUCUCAGGGGAAACUUUGAGAUGGCCUUGCAAAGGGUAUGGUAAUAAGCUGACGGACAUGGUCCUAACCACGCAGCCAAGUCCUAAGUCAACAGAUCUUCUGUUGAUAUGGAUGCAGUUCACAGACUAAAUGUCGGUCGGGGAAGAUGUAUUCUUCUCAUAAGAUAUAGUCGGACCUCUCCUUAAUGGGAGCUAGCGGAUGAAGUGAUGCAACACUGGAGCCGCUGGGAACUAAUUUGUAUGCGAAAGUAUAUUGAUUAGUUUUGGAGUACUCGUGGUCG
Method in brief: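 Colonies from six replicate transformations of E. coli BL21(DE3) were pooled and amplicon-sequenced on an Illumina HiSeq 2500. The library placed an intron with all eight P1ex-region nucleotides randomised inside the knt kanamycin-resistance gene on pET-22b(+), and cells grew overnight at 37°C or 30°C on LB agar with or without 25 μg/mL kanamycin (plus 100 μg/mL carbenicillin, 50 μM IPTG, 0.2% rhamnose). Fitness is the DiMSum error-weighted combination of wild-type-normalised replicate fold changes, kanamycin versus none.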

| Sequence | self-splicing fitness (ln) (30 °C) | self-splicing fitness (ln) (37 °C) |
| --- | --- | --- |
| GGCCAGCAAUAUUACGUCCU | -1.47 ± 0.21 | -0.4 ± 0.17 |
| GGCCAGCAAUAUUACGUGCG | -1.17 ± 0.06 | -0.564 ± 0.079 |
| GGCCAGCAAUAUUACGUUCG | -2.66 ± 0.12 | -1.75 ± 0.11 |
| GGCCAGCAAUAUUACGUUGC | -1.58 ± 0.071 | -0.74 ± 0.081 |
| GGCCAGCAAUAUUACGUUUC | -1.4 ± 0.095 | -0.362 ± 0.089 |
| GGCGAGCAAUAUUACGAGAA |  | -2.57 ± 0.41 |
| GGCGAGCAAUAUUACGAUAG | -1.89 ± 0.18 | -2.67 ± 0.38 |
| GGCGAGCAAUAUUACGCCCA | -2.15 ± 0.42 | -0.478 ± 0.33 |
| GGCGAGCAAUAUUACGCGAA | -2.45 ± 0.2 | -1.33 ± 0.16 |
| GGCGAGCAAUAUUACGCUUU | -2.76 ± 0.23 | -1.22 ± 0.19 |
| GGCGAGCAAUAUUACGGAAA | -1.06 ± 0.48 |  |
| GGCGAGCAAUAUUACGGAAG | -4.21 ± 0.3 | -1.04 ± 0.2 |
| GGCGAGCAAUAUUACGGAUC | -0.443 ± 0.053 | 0.039 ± 0.075 |
| GGCGAGCAAUAUUACGGCUG | -0.315 ± 0.15 | -0.389 ± 0.28 |
| GGCGAGCAAUAUUACGGUUC | -1.46 ± 0.13 | -0.156 ± 0.13 |
| GGCGAGCAAUAUUACGGUUU | -1.06 ± 0.076 | 0.0414 ± 0.11 |
| GGCGAGCAAUAUUACGUACA | -1 ± 0.18 | 0.151 ± 0.15 |
| GGCGAGCAAUAUUACGUGCA | -0.905 ± 0.085 | -0.435 ± 0.098 |
| GGCGAGCAAUAUUACGUUAA | -2.51 ± 0.19 | -1.4 ± 0.2 |
| GGCGAGCAAUAUUACGUUAC | -3.24 ± 0.33 | -2.03 ± 0.32 |
| GGCUAGCAAUAUUACGAAAU | -1.67 ± 0.22 | 0.0518 ± 0.2 |
| GGCUAGCAAUAUUACGACGU | -0.0784 ± 0.15 | 1.15 ± 0.28 |
| GGCUAGCAAUAUUACGAGAC | -3.62 ± 0.44 |  |
| GGCUAGCAAUAUUACGAGCA | -0.589 ± 0.081 | -0.213 ± 0.12 |
| GGCUAGCAAUAUUACGAUUU | -0.855 ± 0.093 | 0.68 ± 0.12 |

| Sequence | self-splicing fitness (ln) (30 °C) | self-splicing fitness (ln) (37 °C) |
| --- | --- | --- |
| GGCUAGCAAUAUUACGCAGU | -1.78 ± 0.34 |  |
| GGCUAGCAAUAUUACGCGAA | -1.83 ± 0.085 | -1.27 ± 0.08 |
| GGCUAGCAAUAUUACGCUCC | -2.32 ± 0.26 |  |
| GGCUAGCAAUAUUACGGAAC | -1.09 ± 0.1 | -0.447 ± 0.13 |
| GGCUAGCAAUAUUACGGAUU | -0.369 ± 0.13 | 0.405 ± 0.16 |
| GGCUAGCAAUAUUACGGCCG | -1.45 ± 0.23 | -0.656 ± 0.22 |
| GGCUAGCAAUAUUACGGCUA | 0.235 ± 0.32 | -0.282 ± 0.42 |
| GGCUAGCAAUAUUACGGGCU |  | -3.05 ± 0.3 |
| GGCUAGCAAUAUUACGGGGU | -2.25 ± 0.1 | -1.29 ± 0.11 |
| GGCUAGCAAUAUUACGUGGG | -2.64 ± 0.17 | -1.91 ± 0.2 |
| GGCUAGCAAUAUUACGUGGU | -3.18 ± 0.23 | -2.13 ± 0.24 |
| GGCUAGCAAUAUUACGUUGA | -1.26 ± 0.13 | 0.455 ± 0.14 |
| GGCUAGCAAUAUUACGUUUG | -2.86 ± 0.11 | -1.45 ± 0.12 |
| GGGAAGCAAUAUUACGAAGA |  | -0.943 ± 0.23 |
| GGGAAGCAAUAUUACGAGAA | -2.16 ± 0.48 | -1.78 ± 0.36 |
| GGGAAGCAAUAUUACGAGUG | -3.06 ± 0.12 | -1.81 ± 0.11 |
| GGGAAGCAAUAUUACGCAAA | -1.9 ± 0.24 | -2 ± 0.17 |
| GGGAAGCAAUAUUACGCCAG | -3.13 ± 0.36 |  |
| GGGAAGCAAUAUUACGCCGG | -3.75 ± 0.29 |  |
| GGGAAGCAAUAUUACGCCUG | -0.0824 ± 0.11 | -0.324 ± 0.16 |
| GGGAAGCAAUAUUACGCGCU | -2.66 ± 0.28 | -0.954 ± 0.27 |
| GGGAAGCAAUAUUACGCUAA | -1.84 ± 0.2 | -0.363 ± 0.18 |
| GGGAAGCAAUAUUACGGAGU | -2.86 ± 0.12 | -2.05 ± 0.16 |
| GGGAAGCAAUAUUACGGCAU | -0.534 ± 0.16 | -0.344 ± 0.19 |
| GGGAAGCAAUAUUACGGGAA | -1.55 ± 0.45 | -1.14 ± 0.31 |

| Sequence | self-splicing fitness (ln) (30 °C) | self-splicing fitness (ln) (37 °C) |
| --- | --- | --- |
| GGGAAGCAAUAUUACGGGCU | -0.942 ± 0.12 | -0.846 ± 0.12 |
| GGGAAGCAAUAUUACGUAAA | -1.53 ± 0.21 | -1.56 ± 0.3 |
| GGGAAGCAAUAUUACGUAGC | -1.84 ± 0.18 | -1.37 ± 0.16 |
| GGGAAGCAAUAUUACGUGUU | -3.17 ± 0.21 | -1.9 ± 0.16 |
| GGGAAGCAAUAUUACGUUGU | -3.23 ± 0.22 | -2.31 ± 0.29 |
| GGGCAGCAAUAUUACGAAAA | -2.12 ± 0.38 | -2.31 ± 0.4 |
| GGGCAGCAAUAUUACGAACA | -0.951 ± 0.17 | -0.607 ± 0.18 |
| GGGCAGCAAUAUUACGAAUU | -0.318 ± 0.12 | -0.166 ± 0.17 |
| GGGCAGCAAUAUUACGACUA | -0.237 ± 0.094 | 0.125 ± 0.11 |
| GGGCAGCAAUAUUACGAGUA | -2.78 ± 0.42 | -2.53 ± 0.33 |
| GGGCAGCAAUAUUACGAUAU | -0.768 ± 0.099 | -0.877 ± 0.1 |
| GGGCAGCAAUAUUACGAUCG | -0.913 ± 0.098 | 0.377 ± 0.15 |
| GGGCAGCAAUAUUACGAUGU | -3.92 ± 0.3 | -0.5 ± 0.18 |
| GGGCAGCAAUAUUACGAUUA | -1.27 ± 0.14 | -1.63 ± 0.15 |
| GGGCAGCAAUAUUACGCAAA | -1.39 ± 0.099 | -0.884 ± 0.11 |
| GGGCAGCAAUAUUACGCAAG | -1.37 ± 0.24 | -0.431 ± 0.23 |
| GGGCAGCAAUAUUACGCACG | 0.202 ± 0.26 | -1.16 ± 0.19 |
| GGGCAGCAAUAUUACGCCCU | -2.78 ± 0.4 |  |
| GGGCAGCAAUAUUACGCCGA | -0.407 ± 0.078 | 0.467 ± 0.1 |
| GGGCAGCAAUAUUACGCUUU | -0.861 ± 0.057 | 0.0207 ± 0.075 |
| GGGCAGCAAUAUUACGGAAC | -1.22 ± 0.1 | -1.75 ± 0.15 |
| GGGCAGCAAUAUUACGGCAA | -0.705 ± 0.14 | -0.742 ± 0.17 |
| GGGCAGCAAUAUUACGGCGU | -1.16 ± 0.12 | -0.571 ± 0.12 |
| GGGCAGCAAUAUUACGGGUG | -3.07 ± 0.14 | -1.71 ± 0.19 |
| GGGCAGCAAUAUUACGGUCA | 0.308 ± 0.069 | 0.187 ± 0.083 |

| Sequence | self-splicing fitness (ln) (30 °C) | self-splicing fitness (ln) (37 °C) |
| --- | --- | --- |
| GGGCAGCAAUAUUACGUAAG | -0.581 ± 0.063 | 0.126 ± 0.096 |
| GGGCAGCAAUAUUACGUGCU | -3.46 ± 0.22 | -2.16 ± 0.25 |
| GGGGAGCAAUAUUACGAAAU | -3.38 ± 0.47 | -2.37 ± 0.39 |
| GGGGAGCAAUAUUACGAAGG | -2.62 ± 0.41 | -1.44 ± 0.39 |
| GGGGAGCAAUAUUACGACAA | -1.55 ± 0.42 |  |
| GGGGAGCAAUAUUACGACUC | -0.891 ± 0.25 | -0.405 ± 0.5 |
| GGGGAGCAAUAUUACGAUUA | -2.23 ± 0.23 | -1.58 ± 0.22 |
| GGGGAGCAAUAUUACGAUUU | -2.01 ± 0.16 | -0.868 ± 0.16 |
| GGGGAGCAAUAUUACGCCGA | -2.05 ± 0.5 |  |
| GGGGAGCAAUAUUACGCCGU | -2.64 ± 0.33 | -0.911 ± 0.34 |
| GGGGAGCAAUAUUACGCUUA | -1.04 ± 0.2 | -1.1 ± 0.27 |
| GGGGAGCAAUAUUACGGCAC | -1.39 ± 0.18 | -1.06 ± 0.3 |
| GGGGAGCAAUAUUACGGCGU | -1.31 ± 0.12 | -1.08 ± 0.15 |
| GGGGAGCAAUAUUACGGGAG |  | -1.53 ± 0.39 |
| GGGGAGCAAUAUUACGGGGU | -3.23 ± 0.3 | -2.13 ± 0.43 |
| GGGGAGCAAUAUUACGGUAG | -3.09 ± 0.27 |  |
| GGGGAGCAAUAUUACGUAGC | -2.01 ± 0.24 | -1.91 ± 0.36 |
| GGGGAGCAAUAUUACGUAUA | -1.69 ± 0.47 | -2.35 ± 0.39 |
| GGGGAGCAAUAUUACGUCGU | -2.77 ± 0.18 | -1.63 ± 0.21 |
| GGGGAGCAAUAUUACGUCUA |  | -2.6 ± 0.37 |
| GGGGAGCAAUAUUACGUGAG | -1.74 ± 0.26 | -1.36 ± 0.2 |
| GGGGAGCAAUAUUACGUGUG | -3.08 ± 0.27 | -1.7 ± 0.21 |
| GGGGAGCAAUAUUACGUUCA | -1.86 ± 0.25 | -1.35 ± 0.19 |
| GGGGAGCAAUAUUACGUUCC |  | -2 ± 0.3 |
| GGGGAGCAAUAUUACGUUGA | -3.11 ± 0.26 | -2.27 ± 0.24 |
